Measured values as given in the supplement of paper PMC9112550, “Optimization of the antimicrobial peptide Bac7 by deep mutational scanning” (BMC Biology, 2022).

Tested on: Escherichia coli TOP10
Assay: shrunken log2 fold change of peptide-encoding DNA abundance (4.5 h post-induction vs induction); higher = less antimicrobial activity (less host growth inhibition)
Settings: time post-induction: 4.5 h; library: site-saturation at positions 5, 18, 19, 20
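Further: peptides expressed intracellularly from a pBAD plasmid library in pooled LB shake-flask culture, induced with 0.3% L-arabinose, DNA abundance read by NGS, three biological replicates, DESeq2 with apeglm shrinkage.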

Sequence	shrunken log2 fold change
RRIRWRPPRLPRPRPRPWGNPRP	0.149
RRIRGRPPRLPRPRPRPWSIPRP	-0.108
RRIRIRPPRLPRPRPRPFPFPRP	-1.39
RRIRWRPPRLPRPRPRPRLMPRP	0.44
RRIRHRPPRLPRPRPRPFWCPRP	-0.3
RRIRTRPPRLPRPRPRPWKFPRP	-0.0178
RRIRQRPPRLPRPRPRPVSWPRP	1.47
RRIRLRPPRLPRPRPRPRTNPRP	0.113
RRIRRRPPRLPRPRPRPSSHPRP	-0.0976
RRIRCRPPRLPRPRPRPMYRPRP	-0.319
RRIRDRPPRLPRPRPRPVTGPRP	0.148
RRIRNRPPRLPRPRPRPSDSPRP	-0.0909
RRIRERPPRLPRPRPRPQKHPRP	-0.608
RRIRCRPPRLPRPRPRPRDVPRP	0.227
RRIRARPPRLPRPRPRPEFWPRP	1.12
RRIRGRPPRLPRPRPRPWILPRP	0.112
RRIRNRPPRLPRPRPRPDLRPRP	-0.105
RRIRFRPPRLPRPRPRPSWPPRP	-0.0802
RRIRQRPPRLPRPRPRPALWPRP	0.144
RRIRIRPPRLPRPRPRPTEYPRP	-0.251
RRIRRRPPRLPRPRPRPPQGPRP	0.856
RRIRRRPPRLPRPRPRPHSDPRP	-0.0198
RRIRDRPPRLPRPRPRPHTEPRP	-0.0337
RRIRPRPPRLPRPRPRPPASPRP	0.559
RRIRQRPPRLPRPRPRPHSEPRP	-0.0749

Sequence	shrunken log2 fold change
RRIRHRPPRLPRPRPRPSCEPRP	-0.569
RRIRGRPPRLPRPRPRPDDIPRP	0.027
RRIRHRPPRLPRPRPRPRECPRP	0.0559
RRIRERPPRLPRPRPRPCDQPRP	0.0916
RRIRKRPPRLPRPRPRPHHPPRP	-0.123
RRIRKRPPRLPRPRPRPGWRPRP	0.348
RRIRIRPPRLPRPRPRPCAAPRP	-0.0041
RRIRKRPPRLPRPRPRPRRVPRP	0.569
RRIRKRPPRLPRPRPRPAHCPRP	-0.0571
RRIRARPPRLPRPRPRPRCVPRP	0.347
RRIRWRPPRLPRPRPRPPVVPRP	0.13
RRIRCRPPRLPRPRPRPSWAPRP	0.18
RRIRWRPPRLPRPRPRPPFEPRP	0.765
RRIRIRPPRLPRPRPRPGFHPRP	0.876
RRIRWRPPRLPRPRPRPSFDPRP	0.0774
RRIRNRPPRLPRPRPRPSMCPRP	-0.0503
RRIRTRPPRLPRPRPRPRSVPRP	-0.272
RRIRKRPPRLPRPRPRPHEHPRP	0.0272
RRIRGRPPRLPRPRPRPVHLPRP	0.034
RRIRPRPPRLPRPRPRPASKPRP	0.022
RRIRTRPPRLPRPRPRPAWFPRP	0.131
RRIRNRPPRLPRPRPRPQHNPRP	-0.625
RRIRMRPPRLPRPRPRPEAHPRP	3.52
RRIRYRPPRLPRPRPRPWGRPRP	-0.186
RRIRWRPPRLPRPRPRPIHHPRP	-0.332

Sequence	shrunken log2 fold change
RRIRERPPRLPRPRPRPCAYPRP	-1.05
RRIRVRPPRLPRPRPRPRPRPRP	0.62
RRIRERPPRLPRPRPRPHVDPRP	-0.00242
RRIRERPPRLPRPRPRPVCGPRP	0.243
RRIRCRPPRLPRPRPRPMLPPRP	-0.00464
RRIRKRPPRLPRPRPRPQSDPRP	0.247
RRIRQRPPRLPRPRPRPNRMPRP	0.00219
RRIRNRPPRLPRPRPRPWVWPRP	-0.115
RRIRIRPPRLPRPRPRPAKQPRP	0.0314
RRIRHRPPRLPRPRPRPGLTPRP	0.129
RRIRMRPPRLPRPRPRPSQNPRP	0.407
RRIRIRPPRLPRPRPRPRPWPRP	0.154
RRIRCRPPRLPRPRPRPHGEPRP	0.0148
RRIRHRPPRLPRPRPRPHSWPRP	-0.0723
RRIRGRPPRLPRPRPRPSHCPRP	0.204
RRIRDRPPRLPRPRPRPEQVPRP	0.015
RRIRWRPPRLPRPRPRPGVKPRP	0.505
RRIRPRPPRLPRPRPRPMYMPRP	-0.0346
RRIRYRPPRLPRPRPRPLKSPRP	-0.365
RRIRGRPPRLPRPRPRPVVAPRP	1.19
RRIRARPPRLPRPRPRPALEPRP	1.19
RRIRCRPPRLPRPRPRPFCRPRP	-0.0846
RRIRIRPPRLPRPRPRPYYVPRP	-0.481
RRIRGRPPRLPRPRPRPLEFPRP	0.319
RRIRWRPPRLPRPRPRPCPCPRP	-0.273

Sequence	shrunken log2 fold change
RRIRQRPPRLPRPRPRPLLYPRP	-0.382
RRIRKRPPRLPRPRPRPHDQPRP	0.0273
RRIRNRPPRLPRPRPRPRAPPRP	0.972
RRIRSRPPRLPRPRPRPQTCPRP	-0.0978
RRIRNRPPRLPRPRPRPVFSPRP	-0.192
RRIRCRPPRLPRPRPRPNLCPRP	-0.427
RRIRFRPPRLPRPRPRPMSNPRP	0.0556
RRIRQRPPRLPRPRPRPPVFPRP	0.247
RRIRTRPPRLPRPRPRPKPAPRP	0.0421
RRIRERPPRLPRPRPRPWWEPRP	0.0397
RRIRRRPPRLPRPRPRPVYCPRP	-0.0322
RRIRRRPPRLPRPRPRPVVPPRP	0.47
RRIRNRPPRLPRPRPRPYGQPRP	-0.124
RRIRHRPPRLPRPRPRPRKCPRP	-0.116
RRIRSRPPRLPRPRPRPWGMPRP	-0.0848
RRIRQRPPRLPRPRPRPVRQPRP	0.0135
RRIRRRPPRLPRPRPRPCTQPRP	0.207
RRIRERPPRLPRPRPRPLLNPRP	0.0481
RRIRARPPRLPRPRPRPFIYPRP	-0.264
RRIRDRPPRLPRPRPRPMTRPRP	-0.113
RRIRFRPPRLPRPRPRPHAWPRP	-0.126
RRIRYRPPRLPRPRPRPPIWPRP	-0.0337
RRIRPRPPRLPRPRPRPEAPPRP	0.53
RRIRDRPPRLPRPRPRPESDPRP	0.000356
RRIRRRPPRLPRPRPRPYHMPRP	-0.254

Sequence	shrunken log2 fold change
RRIRMRPPRLPRPRPRPVHTPRP	0.213
RRIRVRPPRLPRPRPRPAGCPRP	0.459
RRIRSRPPRLPRPRPRPAHEPRP	-0.074
RRIRWRPPRLPRPRPRPPFHPRP	0.0947
RRIRMRPPRLPRPRPRPCKHPRP	0.0196
RRIRQRPPRLPRPRPRPLILPRP	-0.424
RRIRMRPPRLPRPRPRPWVGPRP	0.171
RRIRTRPPRLPRPRPRPCCWPRP	0.0822
RRIRLRPPRLPRPRPRPNEFPRP	-0.168
RRIRFRPPRLPRPRPRPWEIPRP	-0.0062
RRIRDRPPRLPRPRPRPTMIPRP	-0.587
RRIRFRPPRLPRPRPRPEFVPRP	0.0629
RRIRERPPRLPRPRPRPWNKPRP	-0.286
RRIRKRPPRLPRPRPRPELIPRP	0.0174
RRIRSRPPRLPRPRPRPNGAPRP	-0.299
RRIRHRPPRLPRPRPRPGGCPRP	0.165
RRIRYRPPRLPRPRPRPHEHPRP	-0.0681
RRIRIRPPRLPRPRPRPDSFPRP	0.0771
RRIRSRPPRLPRPRPRPFLAPRP	-0.311
RRIRARPPRLPRPRPRPFRFPRP	0.0596
RRIRCRPPRLPRPRPRPHFNPRP	-0.589
RRIRCRPPRLPRPRPRPKFEPRP	0.00386
RRIRHRPPRLPRPRPRPQYRPRP	-0.0967
RRIRIRPPRLPRPRPRPPGWPRP	0.527
RRIRKRPPRLPRPRPRPTKYPRP	-0.106
